Laboratory results: the supplement of paper PMC9170038

Test system: MS2 coat protein
Assay: apparent KD of MS2 coat protein; designed switch direction (-1 OFF switch, 1 ON switch): -1; higher = weaker reporter binding
Outline: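 Apparent KD, taken as the median over clusters for each design, was obtained by curve-fitting normalised cluster fluorescence. Designed RNA switches had been transcribed on Illumina chips by stalled E. coli RNA polymerase and titrated with SNAP-549-labelled MS2 coat protein, doubling from 0.7 or 1.5 nM to 3 µM.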

[1] = input ligand: microRNA oligo, concentration not stated
[2] = Eterna round: R95, input ligand: microRNA oligo, concentration not stated
[3] = Eterna round: R95, input ligand: FMN 200 uM
[4] = Eterna round: R95, input ligand: none

Sequence	apparent KD of MS2 coat protein (input ligand: FMN 200 uM)	apparent KD of MS2 coat protein (input ligand: none)	apparent KD of MS2 coat protein [1]	apparent KD of MS2 coat protein [2]	apparent KD of MS2 coat protein [3]	apparent KD of MS2 coat protein [4]
UCGAUGUGAGGAUAUAUAUGCAGUAAUCCUUAUAUUUUAUAACUUGAGGAUCACCCAAGUAGAAGGCGCGACGU [JR_Ex2_Sub058] (Eterna round: R97, puzzle: Exclusion 2)	27.3 nM	31.1 nM	–	–	–	–
UCGAUGUGAGGAUAUAUAUGCAGUAGUCCUUAUGUUUUAUAACUUGAGGAUCACCCAAGUAGAAGGCGCGACGU [JR_Ex2_Sub060] (Eterna round: R97, puzzle: Exclusion 2)	49.2 nM	39.5 nM	–	–	–	–
UCGCUCCGUGUAGGAUAUCGCCGUACUAUGCGGCGAGAAGGACAUGAGGAUCACCCAUGUAUGUUAUUAUCACGCGUGGCGCAA [Design 61] (Eterna round: R96, puzzle: Exclusion NG 1)	17.9 nM	16.2 nM	13.4 nM	–	–	–
UCGCUCCGUGUAGGAUAUCGCCGUUCUAUUCGGCGAGAAGGACAUGAGGAUCACCCAUGUAUGUUAUUAUCACGUGUGGCGCGC [Design 55] (Eterna round: R96, puzzle: Exclusion NG 1)	36 nM	20.6 nM	14 nM	–	–	–
UCGCUCCGUGUAGGAUAUCGUUGUACCCUGCGGCGAGAAGGACAUGAGGAUCACCCAUGUAUGUUAUUAUCACGCGUGGCGCAA [Design 69] (Eterna round: R96, puzzle: Exclusion NG 1)	15.9 nM	18.3 nM	13.4 nM	–	–	–
UCGCUCCGUGUAGGAUAUCGUUGUAUGAUGCGGCGAGAAGGACAUGAGGAUCACCCAUGUAUGUUAUUAUCACGCGUGGCGCAA [Design 65] (Eterna round: R96, puzzle: Exclusion NG 1)	18.5 nM	20.6 nM	15.3 nM	–	–	–
UCGCUCCGUGUAGGAUAUCGUUGUAUUAUGCGGCGAGAAGGACAUGAGGAUCACCCAUGUAUGUUAUUAUCACGCGUGGCGCAA [Design 66] (Eterna round: R96, puzzle: Exclusion NG 1)	14.8 nM	18.7 nM	14.8 nM	–	–	–
UCGCUCCGUGUAGGAUAUCGUUGUAUUCUGCGGCGAGAAGGACAUGAGGAUCACCCAUGUAUGUUAUUAUCACGCGUGGCGCAA [Design 67] (Eterna round: R96, puzzle: Exclusion NG 1)	–	–	13.9 nM	–	–	–
UCGGCGCGAGGAUAUACGUUUGCUUUUUUUUGUCUUUGUGUACAUGAGGAUCACCCAUGUAGAAGGCGCGCCGC [Apr-15 SS2-22] (puzzle: Exclusion 2)	–	–	–	18.5 nM	–	–
UCGUGUAUAGAGGAUAUAUUAAUAUUUAAAACAAUAGAAGGCUAAACAUGAGGAUCACCCAUGUAUUUGGUUUU [JR_Ex6_Sub054] (Eterna round: R97, puzzle: Exclusion 6)	58.4 nM	20.9 nM	–	–	–	–
UCGUGUGCGUAGGAUAUCGGUAUGAAGGGAGAAUGAGAAGGGCGGACAUGAGGAUCACCCAUGUGUGCCGGAAA [EX6 B.4] (Eterna round: R97, puzzle: Exclusion 6)	43.3 nM	18 nM	–	–	–	–
UCGUUCCGUGUAGGAUAUUGGCCUUCCUCGGGCCGAGAAGGACAUGAGGAUCACCCAUGUAUGCUAUUAUCGCGCGUGGCGCAC [Design 96] (Eterna round: R96, puzzle: Exclusion NG 1)	141 nM	33 nM	24.5 nM	–	–	–
UCUCCACAUGAGGAUCACCCAUGUCAGGAUAUGCUGCGGCUACUAAAAGAGAAUUGCGGCAGAAGGGACACGCC [EX1 B.25] (Eterna round: R97, puzzle: Exclusion 1)	68 nM	20.2 nM	–	–	–	–
UCUCCUCCCGUAAGGAUAUUCAUGCGUACCACGCGGAAGAAGGUACAUGAGGAUCACCCAUGUAAUUAACACCG [BmEX4 B.9] (Eterna round: R97, puzzle: Brourd's mod of Exclusion 4)	30.7 nM	24.3 nM	–	–	–	–
UCUCGUUGGCAAGGAUAUCCUACAUUGUUCUGGCCCGGGCAUGCUACAUGAGGAUCACCCAUGUGGGAGAAGGUGCGUCAUUGC [Design 23] (Eterna round: R96, puzzle: Exclusion NG 2)	146 nM	140 nM	77.4 nM	–	–	–
UCUGGUCGAGGAUAUACAUGAGGAUCACCCAUGUGGUUACGUGACGAUAGUCACGAAUGUAGAAGGCGACCAGA [E3/4-A2] (Eterna round: R97, puzzle: Exclusion 3)	326 nM	230 nM	–	–	–	–
UCUGGUCGAGGAUAUACGUGAGGUGCUUCGGCACCAGGUCUACAUGAGGAUCACCCAUGUAGAAGGCGACCAGA [EX2 #61] (Eterna round: R97, puzzle: Exclusion 2)	62.1 nM	16.7 nM	–	–	–	–

Sequence	apparent KD of MS2 coat protein (input ligand: FMN 200 uM)	apparent KD of MS2 coat protein (input ligand: none)	apparent KD of MS2 coat protein [1]	apparent KD of MS2 coat protein [2]	apparent KD of MS2 coat protein [3]	apparent KD of MS2 coat protein [4]
UCUGGUCGGAAGGAUAUGGUCGGGUCAAAUCGGCCAGAAGGUCUGACAUGAGGAUCACCCAUGUGAGUCCAAAG [Esceus] (puzzle: Exclusion 6)	–	–	–	21.6 nM	51.7 nM	20.8 nM
UCUGGUGCAGGAUAUACAUGAGGAUCACCCAUGUGAUCAGCAGUCCUCGGACUGCAAUGUAGAAGGGCACCAGA [E3/1-D2] (Eterna round: R97, puzzle: Exclusion 3)	47.1 nM	1230 nM	–	–	–	–
UCUUCACAUGAGGAUCACCCAUGUCAGGAUAUAAGGUCUUGUCUACGUUGAAGGGACUUUAGAAGGGACACUUG [EX1 B.6] (Eterna round: R97, puzzle: Exclusion 1)	107 nM	36 nM	–	–	–	–
UCUUCACAUGAGGAUCACCCAUGUGAGGAUAUGGAUUCGCUGGCCGUAGCCAGUGGAUCCAGAAGGCGCGUGAU [JL-ex1-4.23] (Eterna round: R97, puzzle: Exclusion 1)	65 nM	74 nM	–	–	–	–
UCUUGUUGUCCGUGAGAAGACAUGAGGAUCACCCAUGUUAGUUUGAUUAUGAUGUGUAAGUUUGUUGCUCGUUUUAU [JR_STOV1_v2_Sub071] (Eterna round: R97, puzzle: Sensor, turn-off variant 1)	50.2 nM	56.5 nM	–	–	–	–
UCUUUAUUUGUGAGGAUAUCGAUAAAAUGGAUUGUCGAGAAGGCACAUGAGGAUCACCCAUGUGUGGAACAGCA [JR_BMEx4_Sub024] (Eterna round: R97, puzzle: Brourd's mod of Exclusion 4)	54.8 nM	18.8 nM	–	–	–	–
UCUUUCAUUGUGAGGAUAUGCCCAAAUAAAAGCGGGCAGAAGGCACAUGAGGAUCACCCAUGUCCUGCGGUUAU [salish99_bmx4_r4_150] (Eterna round: R97, puzzle: Brourd's mod of Exclusion 4)	357 nM	56.9 nM	–	–	–	–
UGAACUGUAGGAUAUACAUGAGGAUCACCCAUGUCCCUUCGAUGAGGUCCCACCACGUGUAGAAGGAUGGAAGA [Eternabot (L1) Solution 11] (Eterna round: R97, puzzle: Exclusion 3)	36.8 nM	42.2 nM	–	–	–	–
UGAAUGUGAGGAUAUGGUGAGUAGUGCCUGAGCGCUGCUCACCAGAAGGCACAUGAGGAUCACCCAUGUACUUG [JL-ex4-2.07 denovo] (puzzle: Exclusion 4)	–	–	–	49.4 nM	–	–
UGACAGUGAGGAUAUUAUCUGAGGGACAUGAGGAUCACCCAUGUGCACUCACGGGCCCAGUAAGAAGGCACGAGCU [EX5 B.23] (Eterna round: R97, puzzle: Exclusion 5)	18.1 nM	18.8 nM	–	–	–	–
UGAGCAUCAGGAUAUACAAGGCGACCGUGAGGUCGAAGGUUACAUGAGGAUCACCCAUGUAGAAGGGAUGUUCU [jl-ex2-4.11] (Eterna round: R97, puzzle: Exclusion 2)	49.4 nM	25.4 nM	–	–	–	–
UGAGCAUCAGGAUAUACAAGGCGACCGUGAGGUCGAGGGUUACAUGAGGAUCACCCAUGUAGAAGGGAUGUUCU [jl-ex2-4.09] (Eterna round: R97, puzzle: Exclusion 2)	196 nM	43.4 nM	–	–	–	–
UGAGGACAUGAGGAUCACCCAUGUAAGGAUAUGCGGAGAGCUUGGAGAGGUUGAGGAGGCAGAAGGUACAGGAC [JR_Exclu1_Sub048] (puzzle: Exclusion 1)	–	–	–	48.3 nM	47.7 nM	57 nM
UGAGUGCUGCGAGGAUAUACAUGAGGAUCACCCAUGUAAUCGUGUGAGGCAAAGCCUCACACGAUGUAGAAGGCGCAGUACUCU [Mat - Exclusion NG 2 - Mod of JL - D23] (Eterna round: R96, puzzle: Exclusion NG 2)	12.8 nM	18.2 nM	11.4 nM	–	–	–
UGAGUGGUGCGAGGAUAUACAUGAGGAUCACCCAUGUAAACGUGUGAGGCUUUGCCUCACACGAUGUAGAAGGCGCACUACUCU [Mat - Exclusion NG 2 - Mod of JL - D13] (Eterna round: R96, puzzle: Exclusion NG 2)	15.6 nM	13.6 nM	9.36 nM	–	–	–
UGAUCUAGCGGAGGAUAUACAUGAGGAUCACCCAUGUAGUAGUGAGUACCGUAGUGCUCACUUGUGUAGAAGGCCGCUAGAUCU [JL ENG2 3.60] (Eterna round: R96, puzzle: Exclusion NG 2)	17.9 nM	13.5 nM	9.86 nM	–	–	–
UGAUCUUGUGUUAGGAUAUGCUGGUUUUUUUUUCAGCAGAAGGGACAUGAGGAUCACCCAUGUUCUCUCUUUUU [Magic-10] (puzzle: Brourd's mod of Exclusion 4)	–	–	–	15 nM	–	–
